Reference: patent US20060073152A1 (Genentech, published 2006)
No end group written: not given here.

Target: T1, human serum albumin (human, UniProt P02768 25-609)
T1 construct: also called Human SA; HuSA
Experiment: phage binding

| Binder | binding result |
| --- | --- |
| GTEVCYFPGICWGGG (not fully specified (bridges); cysteine pairing not given here; also: phage-displayed, on phage) [HBC-H3] | binds |
| SGAICYVPGICWTHA (on phage) [HB-H7] | binds |
| RMPASLPCYWETICYESSEQ (not fully specified (bridges); cysteine pairing not given here; also: phage-displayed, on phage) [HB-H16] | binds |
| ASEICYFPGICWMVE (on phage) [HBC-H12] | binds |
| SREVCYYPGICWNGA (on phage) [HBC-H2] | binds |
| SYAPCYFPGICWMGN (on phage) [HBC-H8] | binds |
| RAAESSVCYWPGICFDRTEQ (on phage) [HB-H2] | binds |
| EVRSFCTDWPAHYSCTSLQG (on phage) [HA-H74] | binds |
| TTEMCYFPGICWKTE (on phage) [HBC-H14] | binds |
| QTRSFCADWPRHESCKPLRG (on phage) [HA-H76] | binds |
| EHDMCYFPGICWIAD (on phage) [HBC-H6] | binds |
| MEPSRSVCYAEGICFDRGEQ (on phage) [HB-H8] | binds |
| KTCYFPGICWM (on phage) [HC-H10] | binds |
| KLCYFPGICWS (not fully specified (bridges); cysteine pairing not given here; also: phage-displayed, on phage) [HC-H2] | binds |
| RTAESLVCYWPGICFAQSER (not fully specified (bridges); cysteine pairing not given here; also: phage-displayed, on phage) [HB-H18] | binds |
| GVRTFCQDWPAHNSCKLLRG (on phage) [HA-H73] | binds |
| DMCYFPGICWL (on phage) [HC-H13] | binds |
| VQEVCYFPGICWMQE (on phage) [HBC-H10] | binds |
| DICYIPGICWM (on phage) [HC-H6] | binds |
| LVPERIVCYFESICYERSEL (on phage) [HB-H4] | binds |
| ETCYFPGICWL (on phage) [HC-H12] | binds |
| GGEICYFPGICRVLP (not fully specified (bridges); cysteine pairing not given here; also: phage-displayed, on phage) [HBC-H4] | binds |
| ELCYFPGICWM (on phage) [HC-H20] | binds |
| ELCYFPGICWT (not fully specified (bridges); cysteine pairing not given here; also: phage-displayed, on phage) [HB-H13] | binds |

| Binder | binding result |
| --- | --- |
| EMCYFPGICWT (on phage) [HC-H9] | binds |
| DLCYFPGICWM (on phage) [HC-H3] | binds |
| EICYFPGICWI (on phage) [HB-H12] | binds |
| EVCYFPGICWF (not fully specified (bridges); cysteine pairing not given here; also: phage-displayed, on phage) [HC-H11] | binds |
| EMCYFPGICWS (on phage) [HC-H7] | binds |
| EVCYFPGICWM (on phage) [HC-H19] | binds |
| DVCYFPGICWM (on phage) [HC-H8] | binds |
| EVCYFPGICWE (not fully specified (bridges); cysteine pairing not given here; also: phage-displayed, on phage) [HC-H16] | binds |
| ELCYFPGICWP (on phage) [HC-H15] | binds |
| ALCYFPGICWM (on phage) [HC-H14] | binds |
| EICYFPGICWM (on phage) [HC-H17] | binds |
| REPASLVCYFEDICFVRAEA (on phage) [HB-H3] | binds |
| KTEICYFPGICWMSG (not fully specified (bridges); cysteine pairing not given here; also: phage-displayed, on phage) [HBC-H15] | binds |
| LAEMCYFPGICWMSA (on phage) [HBC-H7] | binds |
| RDTVCYFPGICWMAS (not fully specified (bridges); cysteine pairing not given here; also: phage-displayed, on phage) [HBC-H18] | binds |
| VRDMCYFPGICWKSE (on phage) [HBC-H19] | binds |
| DMCYFPGICFN (on phage) [HC-H18] | binds |
| NDEICYFPGVCWKSG (on phage) [HBC-H11] | binds |
| IVEMCYYPGICWISP (on phage) [HB-H10] | binds |
| QTELCYFPGICWNES (on phage) [HBC-H13] | binds |
| HAEICYFPGICWTER (not fully specified (bridges); cysteine pairing not given here; also: phage-displayed, on phage) [HBC-H17] | binds |
| GMCYFPGICWA (on phage) [HC-H4] | binds |
| DSEVCYFPGICWSGT (on phage) [HBC-H1] | binds |

Target: T2, rat serum albumin (rat, UniProt P02770 25-608)
T2 construct: also called Rat SA; RSA
Experiment: phage binding

T2 sequence (P02770 25-608 limits assumed): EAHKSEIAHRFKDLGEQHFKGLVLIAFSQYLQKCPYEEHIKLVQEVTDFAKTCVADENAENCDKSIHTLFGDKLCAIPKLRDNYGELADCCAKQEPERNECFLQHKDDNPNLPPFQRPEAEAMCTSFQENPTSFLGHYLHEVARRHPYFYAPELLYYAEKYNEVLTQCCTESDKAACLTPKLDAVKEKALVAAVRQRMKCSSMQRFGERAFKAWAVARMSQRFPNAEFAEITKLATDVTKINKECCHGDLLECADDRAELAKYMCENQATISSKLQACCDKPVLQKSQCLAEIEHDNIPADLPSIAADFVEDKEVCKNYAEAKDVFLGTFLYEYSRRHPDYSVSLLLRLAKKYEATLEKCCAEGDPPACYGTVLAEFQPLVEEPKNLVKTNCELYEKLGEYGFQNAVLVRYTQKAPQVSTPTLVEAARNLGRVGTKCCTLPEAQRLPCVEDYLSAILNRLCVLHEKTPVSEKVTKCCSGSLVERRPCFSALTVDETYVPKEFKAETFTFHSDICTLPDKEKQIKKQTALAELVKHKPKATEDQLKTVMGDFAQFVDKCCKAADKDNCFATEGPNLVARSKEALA

| Binder | binding result |
| --- | --- |
| QRPIMDFCLPKWGCLWEDGF (on phage) [RB-R7] | binds |
| QSQLEDFCLPKWGCLWGDGF (not fully specified (bridges); cysteine pairing not given here, on phage) [RB-R15] | binds |
| QGYMVDFCLPRWGCLWGDAN (not fully specified (bridges); cysteine pairing not given here, on phage) [RB-R12] | binds |
| QGGMGDFCLPQWGCLWGEDL (on phage) [RB-R17] | binds |
| ERQMVDFCLPKWGCLWGDGF (on phage) [RB-R11] | binds |
| QRHMMDFCLPKWGCLWGDGY (not fully specified (bridges); cysteine pairing not given here, on phage) [RB-R4] | binds |
| KMGRVDFCLPKWGCLWGDEL (not fully specified (bridges); cysteine pairing not given here, on phage) [RB-R13] | binds |
| EWDVCLPHWGCLWDG (on phage) [RBC-R16] | binds |
| DICLPRWGCLW (on phage) [RC-R13] | binds |
| DICLPVWGCLW (on phage; also called RC-R2; RC-R3) [RC-R1] | binds |
| WDDICFRDWGCLWGS (on phage) [RBC-R7] | binds |
